Results as given in article PMC8904574 (2022).

Experiments:
[1] = target: β-subunit of the F1 part of the Na+-F1FO-ATP synthase of Acetobacterium woodii, N-terminal His6 tag (Acetobacterium woodii (strain ATCC …, UniProt P50002)); assay: LILBID-MS; tested with 2 mM ATP/2 mM MgCl2; δ binds only once the α3β3 hexameric head (α3β3γ/α3β3γε) is preformed
[2] = target: α-subunit of the F1 part of the Na+-F1FO-ATP synthase of Acetobacterium woodii, N-terminal StrepI tag (Acetobacterium woodii (strain ATCC …, UniProt P50000)); assay: as above
Sequence of α-subunit of the F1 part of the Na+-F1FO-ATP synthase of Acetobacterium woodii, N-terminal StrepI tag (Acetobacterium woodii (P50000 whole entry): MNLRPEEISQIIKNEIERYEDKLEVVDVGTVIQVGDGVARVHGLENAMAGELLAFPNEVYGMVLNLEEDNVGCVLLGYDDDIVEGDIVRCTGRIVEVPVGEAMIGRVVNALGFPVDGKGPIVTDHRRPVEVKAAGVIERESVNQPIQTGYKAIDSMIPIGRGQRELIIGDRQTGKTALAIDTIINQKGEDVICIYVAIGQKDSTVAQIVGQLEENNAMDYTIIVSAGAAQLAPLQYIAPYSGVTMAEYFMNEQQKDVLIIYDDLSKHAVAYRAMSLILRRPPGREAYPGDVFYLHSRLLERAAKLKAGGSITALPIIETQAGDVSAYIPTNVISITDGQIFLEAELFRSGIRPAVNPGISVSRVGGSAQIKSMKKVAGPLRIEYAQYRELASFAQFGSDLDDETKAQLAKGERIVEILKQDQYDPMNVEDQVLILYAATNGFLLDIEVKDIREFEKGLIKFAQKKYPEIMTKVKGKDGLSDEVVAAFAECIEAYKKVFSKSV

Sequence of β-subunit of the F1 part of the Na+-F1FO-ATP synthase of Acetobacterium woodii, N-terminal His6 tag (Acetobacterium woodii (P50002 whole entry): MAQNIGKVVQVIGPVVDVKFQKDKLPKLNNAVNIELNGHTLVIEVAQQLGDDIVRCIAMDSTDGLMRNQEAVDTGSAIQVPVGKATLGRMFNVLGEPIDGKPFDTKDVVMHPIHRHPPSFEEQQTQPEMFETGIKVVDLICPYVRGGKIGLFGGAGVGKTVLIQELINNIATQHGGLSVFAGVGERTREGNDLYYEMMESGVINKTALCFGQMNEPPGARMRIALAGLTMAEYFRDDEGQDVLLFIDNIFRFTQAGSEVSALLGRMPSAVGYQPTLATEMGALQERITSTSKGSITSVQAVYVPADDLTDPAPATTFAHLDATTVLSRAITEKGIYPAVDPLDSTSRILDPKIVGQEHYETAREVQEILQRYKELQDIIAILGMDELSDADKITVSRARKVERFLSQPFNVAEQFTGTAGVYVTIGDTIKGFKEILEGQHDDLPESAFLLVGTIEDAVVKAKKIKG

B1: δ-subunit of the F1 part of the Na+-F1FO-ATP synthase of Acetobacterium woodii, C-terminal His6 tag (protein)
chain: MSLVASKYARALFDVAVDKDQLDEIFSDFKTATDLFSSEKKFMDLMLTPSLNTGEKKGILMRSLESLSNQYVKNYLMILMDKNRFEDIFDIYEAFRKLCNEHKNLVEARVLTVIPLDETLRIALEENLAKRFNKKVILENEIDKSILGGAVVYVGDQIIDGSIKNQLSQMKKQVNNLRLH
- binding result [1]: no binding
- binding result [2]: no binding
